Ends that are not written are not given here.
B1: GluN2B cytoplasmic tail (aa 1170-1482) (domain or fragment)
chain: GGPCTNRSHLKHGTGEKHGVVGGVPAPWEKNLTNVDWEDRSGGNFCRSCPSKLHNYSSTVAGQNSGRQACIRCEACKKAGNLYDISEDNSLQELDQPAAPVAVTSNASSTKYPQSPTNSKAQKKNRNKLRRQHSYDTFVDLQKEEAALAPRSVSLKDKGRFMDGSPYAHMFEMPAGESSFANKSSVPTAGHHHNNPGSGYMLSKSLYPDRVTQNPFIPTFGDDQCLLHGSKSYFFRQPTVAGASKTRPDFRALVTNKPVVVTLHGAVPGRFQKDICIGNQSNPCVPNNKNPRAFNGSSNGHVYEKLSSIESDV

Legend:
PSD-95 61-724 6xHis [1] = molecular target: T1, PSD-95 61-724 6xHis (human, UniProt P78352 61-724); assay: fluorescence polarisation
[2] = molecular target: T2, PSD-95 61-724 6xHis pSer142 (human, UniProt P78352 61-724, phosphoserine at 142); assay: fluorescence polarisation
[3] = molecular target: T3, PSD-95 61-724 6xHis pSer73 (human, UniProt P78352 61-724, phosphoserine at 73); assay: fluorescence polarisation
[4] = molecular target: T3, PSD-95 61-724 6xHis pSer73; assay: co-sedimentation
[5] = molecular target: T2, PSD-95 61-724 6xHis pSer142; assay: co-sedimentation
PSD-95 61-724 6xHis [6] = molecular target: T1, PSD-95 61-724 6xHis; assay: co-sedimentation

Binder	Kd (PSD-95 61-724 6xHis [1])	binding result [2]	binding result (PSD-95 61-724 6xHis [1])	other results
{TAMRA}-NNGYEKLSSIESDV [Peptide ligand: GluN2B (TAMRA-NNG-YEKLSSIESDV)]	1200 nM			
{TAMRA}-NNGSNAKAVETDV [Peptide ligand: Kv1.4 (TAMRA-NNG-SNAKAVETDV)]		binds	binds	
{TAMRA}-NNGNTANRRTTPV [Peptide ligand: Stargazin (TAMRA-NNG-NTANRRTTPV)]	2700 nM			
{TAMRA}-NNGKKMPSIESDV [Peptide ligand: GluN2A (TAMRA-NNG-KKMPSIESDV)]			binds	binding result [3]: binds
B1				binding result [4]: binds; binding result [5]: binds; binding result (PSD-95 61-724 6xHis [6]): binds
{TAMRA}-NNGPAGKHMVTEV [Peptide ligand: Kv1.7 (TAMRA-NNG-PAGKHMVTEV)]		binds	binds	
